What was measured:
[1] = molecular target: T1, T-loop peptide of AMPK (Example 3)
T1 chain: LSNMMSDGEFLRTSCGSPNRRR

[2] = molecular target: T2, Flag-tagged STRADα, Q7RTN6
T2 chain: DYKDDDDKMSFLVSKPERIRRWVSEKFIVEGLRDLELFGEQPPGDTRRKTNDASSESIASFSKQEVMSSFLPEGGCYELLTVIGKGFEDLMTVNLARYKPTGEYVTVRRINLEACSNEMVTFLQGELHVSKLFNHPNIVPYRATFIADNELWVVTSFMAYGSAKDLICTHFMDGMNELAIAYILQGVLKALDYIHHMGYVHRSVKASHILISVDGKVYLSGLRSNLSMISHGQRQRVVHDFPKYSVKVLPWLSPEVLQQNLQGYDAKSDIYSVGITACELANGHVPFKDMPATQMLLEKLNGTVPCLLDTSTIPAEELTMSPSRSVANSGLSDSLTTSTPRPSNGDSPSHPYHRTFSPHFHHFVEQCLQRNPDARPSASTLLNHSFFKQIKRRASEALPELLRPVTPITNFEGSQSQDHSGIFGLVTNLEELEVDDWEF

[3] = molecular target: T3, Flag-tagged STRADβ, Q9C0K7
T3 chain: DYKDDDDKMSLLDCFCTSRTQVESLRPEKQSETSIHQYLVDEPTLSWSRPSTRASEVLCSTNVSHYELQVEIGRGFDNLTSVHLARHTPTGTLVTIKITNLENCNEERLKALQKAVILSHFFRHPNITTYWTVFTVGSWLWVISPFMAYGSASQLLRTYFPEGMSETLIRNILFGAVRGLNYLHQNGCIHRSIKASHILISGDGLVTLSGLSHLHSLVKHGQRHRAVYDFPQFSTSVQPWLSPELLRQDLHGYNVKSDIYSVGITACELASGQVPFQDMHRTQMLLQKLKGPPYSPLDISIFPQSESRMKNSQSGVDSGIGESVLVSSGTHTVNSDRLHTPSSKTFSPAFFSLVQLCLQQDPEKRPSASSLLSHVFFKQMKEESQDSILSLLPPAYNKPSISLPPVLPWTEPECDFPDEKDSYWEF

Flag-tagged STRADα = molecular target: T4, Flag-tagged STRADα (human, UniProt Q7RTN6 1-431, limits assumed); assay: heterotrimeric complex purified through GST-LKB1 from co-transfected 293 cells, colloidal blue gel and blots
T4 construct: pCMV5 vector; also called Flag-STRADα; FLAG-STRADα
T4 sequence: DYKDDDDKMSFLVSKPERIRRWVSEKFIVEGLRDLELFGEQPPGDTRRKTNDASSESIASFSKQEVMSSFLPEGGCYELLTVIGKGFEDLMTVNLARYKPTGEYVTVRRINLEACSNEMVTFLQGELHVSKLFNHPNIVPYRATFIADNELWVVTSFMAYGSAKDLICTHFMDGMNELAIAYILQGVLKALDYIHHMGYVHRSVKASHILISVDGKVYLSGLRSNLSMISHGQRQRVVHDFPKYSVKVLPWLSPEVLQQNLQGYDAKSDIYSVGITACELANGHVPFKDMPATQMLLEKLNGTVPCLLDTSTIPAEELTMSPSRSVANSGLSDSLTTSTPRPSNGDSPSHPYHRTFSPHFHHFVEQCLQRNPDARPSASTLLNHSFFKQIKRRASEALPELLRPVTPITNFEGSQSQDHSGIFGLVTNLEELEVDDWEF
Protocol: (§1) FIG. 4. MO25α is associated with LKB1 through STRAD (A) 293 cells were transfected with plasmids encoding for the expression of the indicated GST fusion proteins together with Myc-MO25α. 36 h post transfection, the GST tagged proteins were affinity purified from the cell lysates using glutathione-Sepharose as described in Materials and Methods. […] 5 μg of total cell lysates prior to affinity purification were also subjected to immunoblotting with anti-Myc antibody to ensure that Myc-MO25α was expressed at similar levels in each co-transfection (lower panel). (B) N-terminal GST tagged LKB1 was expressed in 293 cells in the presence or absence of Flag-STRADα and purified as above. The purified proteins were subjected to SDS-polyacrylamide gel electrophoresis and visualised by Colloidal blue staining (upper panel). The faint protein band indicated, corresponding to an endogenous protein of 40-kDa (marked *), was identified by tryptic peptide mass-spectral fingerprint as endogenously expressed MO25α (with 38% sequence coverage). The purified proteins were also immunoblotted with the indicated antibodies (lower panels). (C) As above except that GST-LKB1 was expressed in 293 cells together with the indicated isoforms of Flag-STRAD and Myc-MO25 and the proteins visualised by colloidal blue staining were also immunoblotted with the indicated antibodies. For all panels, similar results were obtained in at least 3 separate experiments.
(§2) Expression of GST-fusion proteins in 293 cells and affinity purification. 10-cm diameter dishes of 293 cells were transiently transfected with 3 to 10 μg of the pEBG-2T constructs using a modified calcium phosphate method (Alessi et al., 1996). 36 h post-transfection, the cells were lysed and the clarified lysates were incubated for 1 h on a rotating platform with glutathione-Sepharose (25 μl/dish of lysate) previously equilibrated in lysis Buffer.

Flag-tagged STRADβ = molecular target: T5, Flag-tagged STRADβ (human, UniProt Q9C0K7 1-418); assay: as above
T5 construct: pCMV5 vector; also called Flag-STRADβ; FLAG-STRADβ
T5 sequence: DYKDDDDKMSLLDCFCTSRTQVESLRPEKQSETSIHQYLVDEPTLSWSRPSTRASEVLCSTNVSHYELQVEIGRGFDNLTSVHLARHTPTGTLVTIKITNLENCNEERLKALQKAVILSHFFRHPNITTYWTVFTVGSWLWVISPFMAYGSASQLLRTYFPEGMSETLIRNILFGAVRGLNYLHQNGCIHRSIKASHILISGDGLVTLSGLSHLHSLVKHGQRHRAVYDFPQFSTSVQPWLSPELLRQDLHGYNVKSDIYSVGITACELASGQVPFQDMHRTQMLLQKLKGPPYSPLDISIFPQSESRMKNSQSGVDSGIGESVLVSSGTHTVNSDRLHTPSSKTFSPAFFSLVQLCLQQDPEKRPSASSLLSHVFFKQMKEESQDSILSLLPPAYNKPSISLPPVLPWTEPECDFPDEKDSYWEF
Protocol: as §1, §2

B1: recombinant GST-LKB1:STRADα:MO25α complex (protein)
chain 1: MDVADPEPLGLFSEGELMSVGMDTFIHRIDSTEVIYQPRRKRAKLIGKYLMGDLLGEGSYGKVKEVLDSETLCRRAVKILKKKKLRRIPNGEANVKKEIQLLRRLRHRNVIQLVDVLYNEEKQKMYMVMEYCVCGMQEMLDSVPEKRFPVCQAHGYFRQLIDGLEYLHSQGIVHKDIKPGNLLLTTNGTLKISDLGVAEALHPFAVDDTCRTSQGSPAFQPPEIANGLDTFSGFKVDIWSAGVTLYNITTGLYPFEGDNIYKLFENIGRGDFTIPCDCGPPLSDLLRGMLEYEPAKRFSIRQIRQHSWFRKKHPLAEALVPIPPSPDTKDRWRSMTVVPYLEDLHGRAEEEEEEDLFDIEDGIIYTQDFTVPGQVLEEEVGQNGQSHSLPKAVCVNGTEPQLSSKVKPEGRPGTANPARKVCSSNKIRRLSACKQQ
chain 2: DYKDDDDKMSFLVSKPERIRRWVSEKFIVEGLRDLELFGEQPPGDTRRKTNDASSESIASFSKQEVMSSFLPEGGCYELLTVIGKGFEDLMTVNLARYKPTGEYVTVRRINLEACSNEMVTFLQGELHVSKLFNHPNIVPYRATFIADNELWVVTSFMAYGSAKDLICTHFMDGMNELAIAYILQGVLKALDYIHHMGYVHRSVKASHILISVDGKVYLSGLRSNLSMISHGQRQRVVHDFPKYSVKVLPWLSPEVLQQNLQGYDAKSDIYSVGITACELANGHVPFKDMPATQMLLEKLNGTVPCLLDTSTIPAEELTMSPSRSVANSGLSDSLTTSTPRPSNGDSPSHPYHRTFSPHFHHFVEQCLQRNPDARPSASTLLNHSFFKQIKRRASEALPELLRPVTPITNFEGSQSQDHSGIFGLVTNLEELEVDDWEF
chain 3: MPFPFGKSHKSPADIVKNLKESMAVLEKQDISDKKAEKATEEVSKNLVAMKEILYGTNEKEPQTEAVAQLAQELYNSGLLSTLVADLQLIDFEGKKDVAQIFNNILRRQIGTRTPTVEYICTQQNILFMLLKGYESPEIALNCGIMLRECIRHEPLAKIILWSEQFYDFFRYVEMSTFDIASDAFATFKDLLTRHKLLSAEFLEQHYDRFFSEYEKLLHSENYVTKRQSLKLLGELLLDRHNFTIMTKYISKPENLKLMMNLLRDKSRNIQFEAFHVFKVFVANPNKTQPILDILLKNQAKLIEFLSKFQNDRTEDEQFNDEKTYLVKQIRDLKRPAQQEA
For B1, the “Km (phosphorylation of the T-loop peptide)” value [1] was “The Km for the peptide was estimated to be 1.80±0.48” and the “Vmax of phosphorylation of AMPKtide by the GST-LKB1-STRADα-MO25α complex” value [1] was “Vmax: 23.43 ± 3.51 U/mg”.

B2: N-terminal GST tagged wild type LKB1 (protein)
chain: MDVADPEPLGLFSEGELMSVGMDTFIHRIDSTEVIYQPRRKRAKLIGKYLMGDLLGEGSYGKVKEVLDSETLCRRAVKILKKKKLRRIPNGEANVKKEIQLLRRLRHRNVIQLVDVLYNEEKQKMYMVMEYCVCGMQEMLDSVPEKRFPVCQAHGYFRQLIDGLEYLHSQGIVHKDIKPGNLLLTTNGTLKISDLGVAEALHPFAVDDTCRTSQGSPAFQPPEIANGLDTFSGFKVDIWSAGVTLYNITTGLYPFEGDNIYKLFENIGRGDFTIPCDCGPPLSDLLRGMLEYEPAKRFSIRQIRQHSWFRKKHPLAEALVPIPPSPDTKDRWRSMTVVPYLEDLHGRAEEEEEEDLFDIEDGIIYTQDFTVPGQVLEEEVGQNGQSHSLPKAVCVNGTEPQLSSKVKPEGRPGTANPARKVCSSNKIRRLSACKQQ
B2 was tested, and the “LKB1 activity (autophosphorylation and phosphorylation of MBP)” value [2] was “co-expression with STRADα induced an 4-fold increase in LKB1 activity”, the Relative activation (MBP): 32P phosphorylation of MBP by affinity purified GST-LKB1-WT co-expressed with STRADα (lane 2), GST-LKB1 alone (lane 1) = 1 [2] was 3.9 and the “LKB1 activity (autophosphorylation and phosphorylation of MBP)” value [3] was “LKB1 was only activated by STRADβ in the presence of MO25 isoforms”.

B3: N-terminal Myc-tagged MO25β (other)
chain: MEQKLISEEDLPLFSKSHKNPAEIVKILKDNLAILEKQDKKTDKASEEVSKSLQAMKEILCGTNEKEPPTEAVAQLAQELYSSGLLVTLIADLQLIDFEGKKDVTQIFNNILRRQIGTRSPTVEYISAHPHILFMLLKGYEAPQIALRCGIMLRECIRHEPLAKIILFSNQFRDFFKYVELSTFDIASDAFATFKDLLTRHKVLVADFLEQNYDTIFEDYEKLLQSENYVTKRQSLKLLGELILDRHNFAIMTKYISKPENLKLMMNLLRDKSPNIQFEAFHVFKVFVASPHKTQPIVEILLKNQPKLIEFLSSFQKERTDDEQFADEKNYLIKQIRDLKKTAP
notes: also called Myc-MO25β; myc-MO25β
B3: binds (Flag-tagged STRADα); binds (Flag-tagged STRADβ).

From patent US20070036793A1, “Methods for use of an lkb1/strad7mo25 complex” (priority 2003, published 2007)
